Measured values taken from PMC10407929, “Determining DNA–Protein Binding Affinities and Specificities from Crude Lysates Using a Combined SILAC/TMT Labeling Strategy”.
Where “and” joins values, the source holds several entries; their conditions need not be identical. Equal entries are not always repeated.

What was measured:
Test in all cases: pulldown; 150 mM NaCl, 50 mM Tris pH 8.0, 0.25% NP-40, 1 mM DTT; 4 C, 2 h; 100 ug nuclear extract
Conditions in all cases: protein: extract; label: 5' biotin (strand 1)
[1] = molecular target: KLF1 (Homo sapiens, UniProt Q13351)
Chain of KLF1 (Q13351 whole entry): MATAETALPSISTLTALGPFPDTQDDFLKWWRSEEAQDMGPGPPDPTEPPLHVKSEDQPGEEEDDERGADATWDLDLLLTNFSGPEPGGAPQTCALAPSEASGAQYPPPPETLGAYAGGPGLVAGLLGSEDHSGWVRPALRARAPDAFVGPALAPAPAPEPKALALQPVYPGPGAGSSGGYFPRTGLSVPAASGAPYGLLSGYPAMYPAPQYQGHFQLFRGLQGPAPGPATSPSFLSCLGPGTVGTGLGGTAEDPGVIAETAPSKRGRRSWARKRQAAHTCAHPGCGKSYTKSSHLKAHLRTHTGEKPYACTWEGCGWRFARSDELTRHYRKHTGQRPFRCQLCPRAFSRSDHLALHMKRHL

[2] = molecular target: T1, MAZ (Homo sapiens, UniProt P56270)
T1 sequence: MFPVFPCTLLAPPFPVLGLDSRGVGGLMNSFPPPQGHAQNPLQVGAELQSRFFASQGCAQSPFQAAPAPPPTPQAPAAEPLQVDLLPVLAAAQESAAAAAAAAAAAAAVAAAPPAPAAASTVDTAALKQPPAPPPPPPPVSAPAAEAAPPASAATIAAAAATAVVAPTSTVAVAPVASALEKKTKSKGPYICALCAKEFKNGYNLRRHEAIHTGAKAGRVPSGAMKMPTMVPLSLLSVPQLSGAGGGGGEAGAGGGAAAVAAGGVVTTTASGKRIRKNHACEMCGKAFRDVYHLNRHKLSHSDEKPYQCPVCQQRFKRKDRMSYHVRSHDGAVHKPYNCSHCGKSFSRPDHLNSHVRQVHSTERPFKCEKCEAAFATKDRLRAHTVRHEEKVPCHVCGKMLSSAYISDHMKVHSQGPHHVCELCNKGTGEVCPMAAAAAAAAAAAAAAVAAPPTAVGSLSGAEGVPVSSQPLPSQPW

[3] = molecular target: T2, BANP (Homo sapiens, UniProt Q8N9N5)
T2 sequence: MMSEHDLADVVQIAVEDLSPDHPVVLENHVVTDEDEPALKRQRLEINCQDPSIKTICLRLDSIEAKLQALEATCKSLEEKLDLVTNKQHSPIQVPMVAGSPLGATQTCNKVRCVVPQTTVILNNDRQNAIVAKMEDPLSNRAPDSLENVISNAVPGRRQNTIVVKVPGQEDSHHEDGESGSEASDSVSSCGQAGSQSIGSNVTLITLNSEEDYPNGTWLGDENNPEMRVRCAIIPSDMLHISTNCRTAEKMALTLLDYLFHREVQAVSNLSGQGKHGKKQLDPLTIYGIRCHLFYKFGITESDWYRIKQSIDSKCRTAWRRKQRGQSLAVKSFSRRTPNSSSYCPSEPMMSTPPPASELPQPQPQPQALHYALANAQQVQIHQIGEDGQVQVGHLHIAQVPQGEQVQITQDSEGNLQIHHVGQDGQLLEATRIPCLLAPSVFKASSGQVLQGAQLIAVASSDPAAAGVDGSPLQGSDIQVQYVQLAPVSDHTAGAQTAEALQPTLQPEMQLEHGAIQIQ

[4] = molecular target: HOXB9 (Homo sapiens, UniProt P17482)
Chain of HOXB9 (P17482 whole entry): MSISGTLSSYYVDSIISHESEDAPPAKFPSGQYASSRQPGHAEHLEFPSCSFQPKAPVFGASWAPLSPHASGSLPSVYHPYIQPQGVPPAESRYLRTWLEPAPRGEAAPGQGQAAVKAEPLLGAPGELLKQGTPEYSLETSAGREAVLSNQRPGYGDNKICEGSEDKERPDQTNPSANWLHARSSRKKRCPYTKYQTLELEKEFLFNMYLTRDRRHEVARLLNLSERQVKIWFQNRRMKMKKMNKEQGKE

[5] = molecular target: T3, MAZ (Homo sapiens, UniProt P56270); remark: listed apart in the source
T3 sequence: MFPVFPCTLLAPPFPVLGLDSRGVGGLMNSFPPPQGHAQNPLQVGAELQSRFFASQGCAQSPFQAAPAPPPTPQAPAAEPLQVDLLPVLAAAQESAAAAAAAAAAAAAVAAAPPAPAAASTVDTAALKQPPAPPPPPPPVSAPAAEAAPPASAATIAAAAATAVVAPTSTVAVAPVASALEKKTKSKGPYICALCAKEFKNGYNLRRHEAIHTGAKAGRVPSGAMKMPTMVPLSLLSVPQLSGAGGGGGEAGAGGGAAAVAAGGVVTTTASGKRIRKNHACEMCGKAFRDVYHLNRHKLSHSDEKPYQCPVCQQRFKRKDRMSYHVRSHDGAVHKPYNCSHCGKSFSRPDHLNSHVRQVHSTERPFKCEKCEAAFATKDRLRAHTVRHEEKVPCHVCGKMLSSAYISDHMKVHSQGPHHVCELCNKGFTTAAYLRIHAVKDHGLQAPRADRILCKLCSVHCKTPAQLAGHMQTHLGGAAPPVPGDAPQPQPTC

[6] = molecular target: T4, VEZF1 (Homo sapiens, UniProt Q14119)
T4 sequence: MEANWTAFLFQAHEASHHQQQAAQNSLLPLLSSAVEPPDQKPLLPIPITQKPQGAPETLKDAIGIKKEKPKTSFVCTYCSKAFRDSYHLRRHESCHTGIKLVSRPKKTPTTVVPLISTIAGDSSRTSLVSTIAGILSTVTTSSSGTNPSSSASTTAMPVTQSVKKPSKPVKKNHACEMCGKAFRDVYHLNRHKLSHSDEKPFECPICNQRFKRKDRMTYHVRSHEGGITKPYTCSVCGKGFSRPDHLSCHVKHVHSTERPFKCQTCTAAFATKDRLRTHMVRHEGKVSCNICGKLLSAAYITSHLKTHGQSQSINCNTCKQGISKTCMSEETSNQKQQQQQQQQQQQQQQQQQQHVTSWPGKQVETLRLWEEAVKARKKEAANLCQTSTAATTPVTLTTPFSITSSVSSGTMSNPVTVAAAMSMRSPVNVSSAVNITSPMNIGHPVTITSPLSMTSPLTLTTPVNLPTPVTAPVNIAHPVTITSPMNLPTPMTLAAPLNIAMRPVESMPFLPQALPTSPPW

[7] = molecular target: KLF12 (Homo sapiens, UniProt Q9Y4X4)
Chain of KLF12 (Q9Y4X4 whole entry): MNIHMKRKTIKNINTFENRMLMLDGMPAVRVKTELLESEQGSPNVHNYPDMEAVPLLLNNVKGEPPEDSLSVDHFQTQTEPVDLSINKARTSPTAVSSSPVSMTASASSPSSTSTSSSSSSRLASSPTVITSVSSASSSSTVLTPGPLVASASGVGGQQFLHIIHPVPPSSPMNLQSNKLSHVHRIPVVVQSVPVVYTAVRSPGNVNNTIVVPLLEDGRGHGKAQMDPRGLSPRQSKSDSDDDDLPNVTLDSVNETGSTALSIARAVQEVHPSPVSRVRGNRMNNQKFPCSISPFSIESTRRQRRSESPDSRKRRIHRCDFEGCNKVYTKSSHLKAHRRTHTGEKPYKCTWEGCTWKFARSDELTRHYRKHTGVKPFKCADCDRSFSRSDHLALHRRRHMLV

[8] = molecular target: T5, BEND3 (Homo sapiens, UniProt Q5T5X7)
T5 sequence: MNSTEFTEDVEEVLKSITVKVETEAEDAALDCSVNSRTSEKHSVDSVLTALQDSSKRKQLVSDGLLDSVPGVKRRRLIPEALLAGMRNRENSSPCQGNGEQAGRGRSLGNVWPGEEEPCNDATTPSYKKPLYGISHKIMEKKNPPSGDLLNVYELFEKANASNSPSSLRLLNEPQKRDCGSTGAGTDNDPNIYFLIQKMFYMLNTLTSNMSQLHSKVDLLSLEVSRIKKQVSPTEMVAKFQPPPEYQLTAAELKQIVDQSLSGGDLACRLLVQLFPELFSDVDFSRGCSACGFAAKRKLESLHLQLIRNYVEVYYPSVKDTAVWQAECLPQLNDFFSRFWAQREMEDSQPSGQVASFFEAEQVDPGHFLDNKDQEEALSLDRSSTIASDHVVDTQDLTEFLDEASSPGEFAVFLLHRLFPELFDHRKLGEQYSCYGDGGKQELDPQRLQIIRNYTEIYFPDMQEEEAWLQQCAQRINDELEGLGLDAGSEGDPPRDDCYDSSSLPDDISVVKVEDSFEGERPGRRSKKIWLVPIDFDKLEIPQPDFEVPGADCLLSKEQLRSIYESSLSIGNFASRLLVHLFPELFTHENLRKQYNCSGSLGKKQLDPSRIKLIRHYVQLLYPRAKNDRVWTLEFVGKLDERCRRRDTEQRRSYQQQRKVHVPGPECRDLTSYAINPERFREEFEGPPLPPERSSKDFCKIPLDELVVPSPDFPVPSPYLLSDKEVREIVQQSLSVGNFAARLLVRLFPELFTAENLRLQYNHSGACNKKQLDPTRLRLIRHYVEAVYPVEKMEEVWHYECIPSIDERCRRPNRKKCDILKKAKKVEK

[9] = molecular target: KLF5 (Homo sapiens, UniProt Q13887)
Chain of KLF5 (Q13887 whole entry): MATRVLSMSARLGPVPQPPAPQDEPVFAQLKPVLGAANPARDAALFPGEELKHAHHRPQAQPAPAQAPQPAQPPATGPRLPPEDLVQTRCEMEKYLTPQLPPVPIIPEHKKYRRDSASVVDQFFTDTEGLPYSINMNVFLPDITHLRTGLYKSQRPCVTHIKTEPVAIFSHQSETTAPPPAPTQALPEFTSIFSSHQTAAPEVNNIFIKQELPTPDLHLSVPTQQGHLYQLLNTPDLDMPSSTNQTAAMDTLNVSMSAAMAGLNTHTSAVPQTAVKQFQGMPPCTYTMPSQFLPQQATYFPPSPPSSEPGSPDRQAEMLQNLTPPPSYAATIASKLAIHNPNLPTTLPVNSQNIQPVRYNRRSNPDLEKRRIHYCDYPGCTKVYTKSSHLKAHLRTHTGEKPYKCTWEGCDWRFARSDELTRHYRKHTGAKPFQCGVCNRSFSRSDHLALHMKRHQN

[10] = molecular target: SP1 (Homo sapiens, UniProt P08047)
Chain of SP1 (P08047 whole entry): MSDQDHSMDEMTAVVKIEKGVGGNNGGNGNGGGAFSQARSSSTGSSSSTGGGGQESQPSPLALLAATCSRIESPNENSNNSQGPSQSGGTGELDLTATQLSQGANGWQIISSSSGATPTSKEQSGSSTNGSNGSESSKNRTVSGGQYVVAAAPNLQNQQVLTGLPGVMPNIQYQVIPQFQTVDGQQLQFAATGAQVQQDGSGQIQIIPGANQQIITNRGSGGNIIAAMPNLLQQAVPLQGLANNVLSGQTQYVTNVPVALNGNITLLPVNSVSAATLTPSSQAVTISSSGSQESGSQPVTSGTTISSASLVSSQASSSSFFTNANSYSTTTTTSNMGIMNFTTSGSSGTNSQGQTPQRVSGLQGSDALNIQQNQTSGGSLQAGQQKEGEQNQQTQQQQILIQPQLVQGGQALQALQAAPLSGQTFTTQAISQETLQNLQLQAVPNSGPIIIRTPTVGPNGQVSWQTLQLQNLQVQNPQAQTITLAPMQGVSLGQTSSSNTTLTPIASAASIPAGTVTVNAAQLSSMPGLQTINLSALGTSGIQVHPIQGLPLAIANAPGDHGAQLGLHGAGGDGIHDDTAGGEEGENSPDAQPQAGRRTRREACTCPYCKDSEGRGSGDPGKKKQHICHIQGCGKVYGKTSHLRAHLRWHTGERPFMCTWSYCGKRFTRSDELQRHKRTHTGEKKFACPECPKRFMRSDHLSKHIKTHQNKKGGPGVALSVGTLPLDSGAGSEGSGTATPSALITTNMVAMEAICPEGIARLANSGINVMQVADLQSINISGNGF

[11] = molecular target: SP3 (Homo sapiens, UniProt Q02447)
Chain of SP3 (Q02447 whole entry): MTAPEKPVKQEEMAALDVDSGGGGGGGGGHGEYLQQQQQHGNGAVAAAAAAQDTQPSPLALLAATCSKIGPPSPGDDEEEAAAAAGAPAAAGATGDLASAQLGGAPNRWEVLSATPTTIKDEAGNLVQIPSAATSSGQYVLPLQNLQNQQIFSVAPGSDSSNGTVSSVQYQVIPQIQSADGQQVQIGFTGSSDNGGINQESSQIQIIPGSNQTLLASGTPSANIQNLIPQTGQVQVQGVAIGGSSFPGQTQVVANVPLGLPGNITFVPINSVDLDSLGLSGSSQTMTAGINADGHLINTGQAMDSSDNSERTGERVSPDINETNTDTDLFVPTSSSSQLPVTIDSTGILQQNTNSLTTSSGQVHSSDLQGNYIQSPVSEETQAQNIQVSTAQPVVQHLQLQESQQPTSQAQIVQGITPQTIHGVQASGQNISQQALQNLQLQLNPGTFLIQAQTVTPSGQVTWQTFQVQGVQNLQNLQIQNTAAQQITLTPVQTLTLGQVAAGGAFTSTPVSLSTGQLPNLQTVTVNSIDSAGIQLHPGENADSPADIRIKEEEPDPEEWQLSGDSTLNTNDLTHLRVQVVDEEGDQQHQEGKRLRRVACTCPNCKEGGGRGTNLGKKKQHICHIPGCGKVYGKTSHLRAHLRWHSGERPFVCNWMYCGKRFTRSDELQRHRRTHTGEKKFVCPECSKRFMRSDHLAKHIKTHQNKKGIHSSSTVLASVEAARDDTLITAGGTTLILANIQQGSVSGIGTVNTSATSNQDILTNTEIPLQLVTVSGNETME

[12] = molecular target: TFAP2A (Homo sapiens, UniProt P05549)
Chain of TFAP2A (P05549 whole entry): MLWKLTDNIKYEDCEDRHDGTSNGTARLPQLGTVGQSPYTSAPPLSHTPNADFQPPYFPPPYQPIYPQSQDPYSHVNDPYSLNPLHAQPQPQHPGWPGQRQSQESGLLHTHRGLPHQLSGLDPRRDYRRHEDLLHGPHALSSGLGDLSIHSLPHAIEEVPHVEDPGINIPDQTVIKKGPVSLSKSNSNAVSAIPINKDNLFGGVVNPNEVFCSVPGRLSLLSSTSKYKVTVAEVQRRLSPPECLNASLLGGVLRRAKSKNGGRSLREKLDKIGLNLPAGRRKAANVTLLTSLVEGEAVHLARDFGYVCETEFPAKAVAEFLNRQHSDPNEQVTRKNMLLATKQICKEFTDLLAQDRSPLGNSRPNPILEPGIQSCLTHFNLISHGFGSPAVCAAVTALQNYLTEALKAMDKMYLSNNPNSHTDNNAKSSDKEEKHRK

[13] = molecular target: T6, ZNF148 (Homo sapiens, UniProt Q9UQR1)
T6 sequence: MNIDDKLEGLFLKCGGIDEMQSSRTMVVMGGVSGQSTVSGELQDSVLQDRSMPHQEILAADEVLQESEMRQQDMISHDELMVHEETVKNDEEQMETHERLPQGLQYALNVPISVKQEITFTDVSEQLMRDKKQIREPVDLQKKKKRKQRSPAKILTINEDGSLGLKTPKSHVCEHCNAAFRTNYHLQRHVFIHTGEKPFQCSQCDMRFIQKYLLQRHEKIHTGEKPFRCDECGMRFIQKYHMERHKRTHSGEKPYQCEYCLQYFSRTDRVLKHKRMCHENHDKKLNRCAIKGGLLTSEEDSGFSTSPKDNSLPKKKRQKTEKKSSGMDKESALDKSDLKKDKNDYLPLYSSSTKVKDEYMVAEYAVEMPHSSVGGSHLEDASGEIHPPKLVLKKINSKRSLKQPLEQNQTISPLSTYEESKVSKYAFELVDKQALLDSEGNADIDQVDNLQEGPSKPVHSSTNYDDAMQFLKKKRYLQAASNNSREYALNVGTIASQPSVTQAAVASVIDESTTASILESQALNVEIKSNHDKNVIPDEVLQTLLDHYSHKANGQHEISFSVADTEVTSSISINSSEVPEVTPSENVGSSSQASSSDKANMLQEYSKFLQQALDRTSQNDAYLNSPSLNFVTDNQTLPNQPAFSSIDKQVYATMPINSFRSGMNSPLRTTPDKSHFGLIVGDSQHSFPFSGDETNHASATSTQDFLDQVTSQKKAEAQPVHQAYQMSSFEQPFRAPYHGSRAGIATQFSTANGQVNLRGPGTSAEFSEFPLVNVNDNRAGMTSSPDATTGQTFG

B1: CGCG bait (dsDNA)
DNA 1: GCCGCCGCCCTTCTCGCGAGACTGCCGGGCC
DNA 2: GGCCCGGCAGTCTCGCGAGAAGGGCGGCGGC
[1]
  apparent K (half saturation): 83 nM
[2]
  apparent K (half saturation): 203 nM
[3]
  apparent K (half saturation): 6.9 nM and 11.3 nM
[4]
  apparent K (half saturation): 323 nM
[5]
  apparent K (half saturation): 153 nM
[6]
  apparent K (half saturation): 333 nM

B2: SP/KLF negative control bait (dsDNA)
DNA 1: GAGAGAAAATAAAACTGGCT
DNA 2: AGCCAGTTTTATTTTCTCTC
[6]
  apparent K (half saturation): > 1180 nM

B3: BEND3 bait (dsDNA)
DNA 1: GCCGCCGCCCTCCCACGCGCTGCCGGGCC
DNA 2: GGCCCGGCAGCGCGTGGGAGGGCGGCGGC
[7]
  apparent K (half saturation): 346 nM
[2]
  apparent K (half saturation): 56.4 nM
[8]
  apparent K (half saturation): 166 nM
[9]
  apparent K (half saturation): 227 nM
[6]
  apparent K (half saturation): 110 nM
[10]
  apparent K (half saturation): 289 nM

B4: SP/KLF bait (dsDNA)
DNA 1: GAGAGCCCCGCCCCCTGGCT
DNA 2: AGCCAGGGGGCGGGGCTCTC
[11]
  apparent K (half saturation): 6.26 nM
[12]
  apparent K (half saturation): 162 nM
[6]
  apparent K (half saturation): 90.4 nM
[13]
  apparent K (half saturation): 54.2 nM
[10]
  apparent K (half saturation): 13.8 nM
